Results reported in doi:10.1101/375832, “A Ubiquitin-Binding Domain that Does Not Bind Ubiquitin” (bioRxiv, 2018).
Residue numbers refer to the chain shown, from its start.

T1: FLAG-SMARCAD1, full-length, wild type, recombinant from E. coli (human, UniProt Q9H4L7 1-1026)
T1 construct: SMARCAD1, human, full-length; Cloned in pET28a-SUMO; source: E. coli BL-21 CodonPlus (DE3)-RIL, purified (HisTrap, Heparin, ProSwift SAX-1S)
T1 sequence (looked up): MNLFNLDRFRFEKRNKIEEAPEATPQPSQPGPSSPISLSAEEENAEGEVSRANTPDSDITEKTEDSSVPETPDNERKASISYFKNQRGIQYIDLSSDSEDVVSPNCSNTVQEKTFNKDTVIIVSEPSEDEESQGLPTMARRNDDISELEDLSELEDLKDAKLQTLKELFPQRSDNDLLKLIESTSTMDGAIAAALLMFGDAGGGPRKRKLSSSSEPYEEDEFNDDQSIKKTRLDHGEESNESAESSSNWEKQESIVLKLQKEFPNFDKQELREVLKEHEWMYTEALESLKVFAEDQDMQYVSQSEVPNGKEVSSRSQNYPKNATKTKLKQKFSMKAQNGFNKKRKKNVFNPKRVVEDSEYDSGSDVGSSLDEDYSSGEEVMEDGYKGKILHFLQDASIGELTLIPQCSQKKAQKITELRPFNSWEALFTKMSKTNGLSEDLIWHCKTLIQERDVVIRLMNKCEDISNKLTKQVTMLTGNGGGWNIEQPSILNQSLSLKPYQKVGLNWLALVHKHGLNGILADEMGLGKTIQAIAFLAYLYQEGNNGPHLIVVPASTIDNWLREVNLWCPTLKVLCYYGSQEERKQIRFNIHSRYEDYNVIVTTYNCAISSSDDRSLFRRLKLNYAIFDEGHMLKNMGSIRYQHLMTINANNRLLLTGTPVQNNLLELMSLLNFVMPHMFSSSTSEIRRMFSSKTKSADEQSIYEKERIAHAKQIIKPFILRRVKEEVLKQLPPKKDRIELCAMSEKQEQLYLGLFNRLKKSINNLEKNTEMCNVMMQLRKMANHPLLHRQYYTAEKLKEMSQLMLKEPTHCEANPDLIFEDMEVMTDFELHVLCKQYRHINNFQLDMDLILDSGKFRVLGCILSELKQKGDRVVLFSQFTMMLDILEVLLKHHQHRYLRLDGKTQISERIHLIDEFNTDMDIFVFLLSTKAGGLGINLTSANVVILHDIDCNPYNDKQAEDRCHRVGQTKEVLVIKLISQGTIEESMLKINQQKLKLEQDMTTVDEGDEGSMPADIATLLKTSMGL

B1: KAP1, full-length, recombinant from E. coli (HA-KAP1) (natural protein, human, UniProt Q13263 1-835, looked up)
chain: MAASAAAASAAAASAASGSPGPGEGSAGGEKRSTAPSAAASASASAAASSPAGGGAEALELLEHCGVCRERLRPEREPRLLPCLHSACSACLGPAAPAAANSSGDGGAAGDGTVVDCPVCKQQCFSKDIVENYFMRDSGSKAATDAQDANQCCTSCEDNAPATSYCVECSEPLCETCVEAHQRVKYTKDHTVRSTGPAKSRDGERTVYCNVHKHEPLVLFCESCDTLTCRDCQLNAHKDHQYQFLEDAVRNQRKLLASLVKRLGDKHATLQKSTKEVRSSIRQVSDVQKRVQVDVKMAILQIMKELNKRGRVLVNDAQKVTEGQQERLERQHWTMTKIQKHQEHILRFASWALESDNNTALLLSKKLIYFQLHRALKMIVDPVEPHGEMKFQWDLNAWTKSAEAFGKIVAERPGTNSTGPAPMAPPRAPGPLSKQGSGSSQPMEVQEGYGFGSGDDPYSSAEPHVSGVKRSRSGEGEVSGLMRKVPRVSLERLDLDLTADSQPPVFKVFPGSTTEDYNLIVIERGAAAAATGQPGTAPAGTPGAPPLAGMAIVKEEETEAAIGAPPTATEGPETKPVLMALAEGPGAEGPRLASPSGSTSSGLEVVAPEGTSAPGGGPGTLDDSATICRVCQKPGDLVMCNQCEFCFHLDCHLPALQDVPGEEWSCSLCHVLPDLKEEDGSLSLDGADSTGVVAKLSPANQRKCERVLLALFCHEPCRPLHQLATDSTFSLDQPGGTLDLTLIRARLQEKLSPPYSSPQEFAQDVGRMFKQFNKLTEDKADVQSIIGLQRFFETRMNEAFGDTKFSAVLVEPPPMSLPGAGLSSQELSGGPGDGP
notes: KAP1 (TRIM28), human, full-length; also called TRIM28; TIF1β; source: E. coli BL-21 CodonPlus (DE3)-RP, purified (HisTrap, Heparin, Sephacryl S-400 gel filtration)
B2: FLAG-tagged SMARCAD1 CUE1,2 fragment (S95-N347), wild type (domain or fragment, human, UniProt Q9H4L7 95-347, looked up)
chain: SSDSEDVVSPNCSNTVQEKTFNKDTVIIVSEPSEDEESQGLPTMARRNDDISELEDLSELEDLKDAKLQTLKELFPQRSDNDLLKLIESTSTMDGAIAAALLMFGDAGGGPRKRKLSSSSEPYEEDEFNDDQSIKKTRLDHGEESNESAESSSNWEKQESIVLKLQKEFPNFDKQELREVLKEHEWMYTEALESLKVFAEDQDMQYVSQSEVPNGKEVSSRSQNYPKNATKTKLKQKFSMKAQNGFNKKRKKN
notes: SMARCAD1, human, residues S95-N347 encompassing both CUE domains; source: E. coli BL-21 CodonPlus (DE3)-RIL, purified (Ni-NTA, Mono Q if required)
B3: FLAG-tagged SMARCAD1 CUE1,2 fragment L196A (domain or fragment, human, UniProt Q9H4L7 95-347, looked up)
chain: B2 chain with L102A
notes: SMARCAD1, human, CUE1,2 fragment S95-N347; source: E. coli, purified; construct generated by GenScript
B4: FLAG-tagged SMARCAD1 CUE1,2 fragment D188A (domain or fragment, human, UniProt Q9H4L7 95-347, looked up)
chain: B2 chain with D94A
notes: as for B3
B5: FLAG-tagged SMARCAD1 CUE1,2 fragment P170A (domain or fragment, human, UniProt Q9H4L7 95-347, looked up)
chain: B2 chain with P76A
notes: as for B3
B6: FLAG-tagged SMARCAD1 CUE1,2 fragment L195A (domain or fragment, human, UniProt Q9H4L7 95-347, looked up)
chain: B2 chain with L101A
notes: as for B3
B7: FLAG-tagged SMARCAD1 CUE1,2 fragment E167A (domain or fragment, human, UniProt Q9H4L7 95-347, looked up)
chain: B2 chain with E73A
notes: as for B3
B8: FLAG-tagged SMARCAD1 CUE1,2 fragment Q171A (domain or fragment, human, UniProt Q9H4L7 95-347, looked up)
chain: B2 chain with Q77A
notes: as for B3
B9: SMARCAD1 CUE1 fragment (S95-E237), wild type (domain or fragment, human, UniProt Q9H4L7 95-237, looked up)
chain: SSDSEDVVSPNCSNTVQEKTFNKDTVIIVSEPSEDEESQGLPTMARRNDDISELEDLSELEDLKDAKLQTLKELFPQRSDNDLLKLIESTSTMDGAIAAALLMFGDAGGGPRKRKLSSSSEPYEEDEFNDDQSIKKTRLDHGE
notes: SMARCAD1, human, residues S95-E237 spanning only the first CUE domain; also called wild type CUE1 fragment; source: E. coli BL-21 CodonPlus (DE3)-RIL, purified (Ni-NTA, Mono Q if required)
B10: FLAG-tagged SMARCAD1 CUE1,2 fragment Δ200-230 (domain or fragment, human, UniProt Q9H4L7 95-347, looked up)
chain: SSDSEDVVSPNCSNTVQEKTFNKDTVIIVSEPSEDEESQGLPTMARRNDDISELEDLSELEDLKDAKLQTLKELFPQRSDNDLLKLIESTSTMDGAIAAALLMFGTRLDHGEESNESAESSSNWEKQESIVLKLQKEFPNFDKQELREVLKEHEWMYTEALESLKVFAEDQDMQYVSQSEVPNGKEVSSRSQNYPKNATKTKLKQKFSMKAQNGFNKKRKKN
notes: SMARCAD1, human, CUE1,2 fragment S95-N347 with residues 200-230 deleted; source: E. coli, purified; construct generated by GenScript

What was measured:
Conditions in all cases: both partners purified
[1] = target: T1, FLAG-SMARCAD1, full-length, wild type, …; assay: co-IP; purified full-length SMARCAD1 and KAP1 from E. coli, 7μg of each in 280μL SK binding buffer, 200mM NaCl, 4°C; immunoprecipitated overnight with anti-FLAG M2 affinity gel
[2] = target: T2, KAP1 RBCC (S33-K434), purified (human, UniProt Q13263 33-434); assay: co-IP; purified SMARCAD1 fragments (CUE1,2, CUE1) and KAP1 RBCC, 9.6μg of each in a 240μL binding reaction, 1 hour at 4°C; immunoprecipitated with anti-FLAG M2 affinity gel for 3 hours at 4°C
T2 construct: KAP1 (TRIM28), human, residues S33-K434, RBCC domain; also called KAP1 S33-K434; Fragment 1; source: E. coli BL-21 CodonPlus (DE3)-RP, purified (Ni-NTA, Mono Q)

[3] = target: T3, KAP1 RBCC (S33-K434) M335A (human, UniProt Q13263 33-434, M335A); assay: as above
T3 construct: KAP1 (TRIM28), human, RBCC fragment S33-K434; source: E. coli, purified; construct generated by GenScript
T3 sequence (Q13263 33-434 M335A): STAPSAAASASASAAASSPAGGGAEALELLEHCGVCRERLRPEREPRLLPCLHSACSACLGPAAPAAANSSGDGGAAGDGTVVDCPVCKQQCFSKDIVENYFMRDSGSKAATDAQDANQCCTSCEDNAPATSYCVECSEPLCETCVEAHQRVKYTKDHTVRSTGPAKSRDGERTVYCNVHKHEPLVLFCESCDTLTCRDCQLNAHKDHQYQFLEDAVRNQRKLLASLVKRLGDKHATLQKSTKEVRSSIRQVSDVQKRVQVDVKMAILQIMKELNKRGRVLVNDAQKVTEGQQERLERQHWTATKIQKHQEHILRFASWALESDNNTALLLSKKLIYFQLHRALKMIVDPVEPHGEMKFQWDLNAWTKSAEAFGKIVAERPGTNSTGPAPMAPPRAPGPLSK

[4] = target: T4, KAP1 RBCC (S33-K434) E343A (human, UniProt Q13263 33-434, E343A); assay: as above
T4 construct: KAP1 (TRIM28), human, RBCC fragment S33-K434; source: E. coli, purified; construct generated by GenScript
T4 sequence (Q13263 33-434 E343A): as the sequence (Q13263 33-434 M335A) above, with A303M, E311A counted along it

[5] = target: T5, KAP1 RBCC (S33-K434) L376A (human, UniProt Q13263 33-434, L376A); assay: as above
T5 construct: KAP1 (TRIM28), human, RBCC fragment S33-K434; source: E. coli, purified; construct generated by GenScript
T5 sequence (Q13263 33-434 L376A): as the sequence (Q13263 33-434 M335A) above, with A303M, L344A counted along it

[6] = target: T6, KAP1 RBCC (S33-K434) I379A (human, UniProt Q13263 33-434, I379A); assay: as above
T6 construct: KAP1 (TRIM28), human, RBCC fragment S33-K434; source: E. coli, purified; construct generated by GenScript
T6 sequence (Q13263 33-434 I379A): as the sequence (Q13263 33-434 M335A) above, with A303M, I347A counted along it

[7] = target: T7, KAP1 RBCC (S33-K434) V380A (human, UniProt Q13263 33-434, V380A); assay: as above
T7 construct: KAP1 (TRIM28), human, RBCC fragment S33-K434; source: E. coli, purified; construct generated by GenScript
T7 sequence (Q13263 33-434 V380A): as the sequence (Q13263 33-434 M335A) above, with A303M, V348A counted along it

| Binder | binding result [2] | other results |
| --- | --- | --- |
| B1 |  | binding result [1]: binds |
| B2 | binds | binding result [3]: binds; binding result [4]: binds; binding result [5]: binds; binding result [6]: binds; binding result [7]: binds |
| B3 | binds |  |
| B4 | binds |  |
| B5 | binds |  |
| B6 | binds |  |
| B7 | binds |  |
| B8 | binds |  |
| B9 | binds |  |
| B10 | binds |  |
